Assay results from PMC5042384, “Sequence-Dependent T:G Base Pair Opening in DNA Double Helix Bound by Cren7, a Chromatin Protein Conserved among Crenarchaea”.

T1: Cren7 (UniProt Q97ZE3 1-60)
T1 sequence: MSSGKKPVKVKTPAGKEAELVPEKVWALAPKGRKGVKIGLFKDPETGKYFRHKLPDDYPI


Key:
[1] = target: T1, Cren7; assay: X-ray crystallography; 2.1 A; both T:G wobble; SPR (BIAcore 3000): 50 mM Tris-Cl pH 7.5, 100 mM NaCl, 1 mM EDTA, 0.005% Tween 20, 25 C, 1:1 Langmuir global fit; crystals: protein:DNA 1:1.5, 30% PEG1500, 20 C; details: protein: recombinant; blunt; self-annealed octamer, 2 strand copies, T:G mispairs T2:G15 and G7:T10
[2] = target: T1, Cren7; assay: X-ray crystallography; 2.0 A; T2:G15 open; SPR (BIAcore 3000): 50 mM Tris-Cl pH 7.5, 100 mM NaCl, 1 mM EDTA, 0.005% Tween 20, 25 C, 1:1 Langmuir global fit; crystals: protein:DNA 1:1.5, 30% PEG1500, 20 C; details: protein: recombinant; blunt; self-annealed octamer, 2 strand copies, T:G mispairs T2:G15 and G7:T10

Binder	binding result [1]	binding result [2]
d(GTGATCGC)2 (dsDNA) DNA 1: GTGATCGC DNA 2: GTGATCGC	binds	
d(GTAATTGC)2 (dsDNA) DNA 1: GTAATTGC DNA 2: GTAATTGC		binds
